Columns and labels:
iSRCR123 [1] = target: T1, iSRCR123 (Homo sapiens, UniProt Q9UGM3); assay: SPR binding of analytes to immobilized iSRCR123 (CM5 chip, 1:1 Langmuir); settings: for KA / Kd / ka / kd: ligand iSRCR123
T1 construct: multiple SRCR domains have better adherence capability compared to that of a single SRCR domain; made in house; host or cells: Drosophila expression system
Description: (§1) Real time binding analyses of the SRCR domains with AgI/II fragments were carried out using the BIAcore 2000 system. […] Self association of iSRCR1 or iSRCR123 (at 2 μM) were also determined in a similar manner as described above. Finally to determine the effect of calcium SPR analysis was carried out by dialyzing the analytes and ligands in binding buffer devoid of CaCl2.
(§2) In addition, the SRCR holding two distinct surfaces compounded the elucidation of individual kinetics, and presently there are no modeling protocols available to determine the individual affinities for such a system, therefore for simplicity we have utilized a single site 1:1 Langmuir model. All experiments were carried out in triplicates and the kinetics of the association (KA) and dissociation (KD) rate constants were deduced using the 1:1 Langmuir Kinetic model on the BIA-Evaluation software. The concentration (C in μM) of analyte (FL^AgI/II or FL^SspB at 2 μM) that adhered to the immobilized ligand (iSRCR1, iSRCR123) within the flow cell was calculated using the formula C=(RU/MW)×(1/V), where RU is resonance unit (1 RU=1 pg of bound protein), MW is molecular weight of analyte and V is volume of flow cell (1.2×10^−10 L).

iSRCR1 (Deglycosylated) = target: T2, iSRCR1 (Deglycosylated) (Homo sapiens, UniProt Q9UGM3); assay: SPR binding of analytes to on-chip deglycosylated iSRCR1; settings: ligand iSRCR1 (Deglycosylated)
T2 construct: strongly proves that a single SRCR domain contains the adherence sites for AgI/II and SspB; made in house; host or cells: Drosophila expression system
T2 sequence (Q9UGM3 102-202): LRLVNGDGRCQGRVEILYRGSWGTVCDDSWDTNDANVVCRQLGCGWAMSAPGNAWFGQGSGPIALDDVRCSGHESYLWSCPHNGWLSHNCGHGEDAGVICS
Description: as §1
(§3) On-chip Deglycosylation of the iSRCR1 and iSRCR123 was carried out after immobilizing them on CM5 sensor chip. Enzymatic deglycosylation was done to remove N- and O-linked carbohydrates from iSRCR1 and iSRCR123. Briefly, after immobilization of iSRCR1 and iSRCR123, deglycosylation was carried out at native conditions by incubating the entire chip surface externally with a cocktail containing a total reaction volume of 40 μl made up of 4 μl of 10×G7reaction buffer, 4 μl of 10% NP40, 4 μl of Neuraminidase (Sigma), 18 μl water and 10 μl of O-glycosidase (New England Biolabs, Inc.,) and similarly following manufacturers protocols for EndoH (New England Biolabs, Inc). Later, the chip was sealed and incubated overnight at 37° C. Subsequently the chip was thoroughly washed with binding buffer (20 mM HEPES, 150 mM NaCl, 2.5 mM CaCl2) to remove the deglycosylating enzymes and other remnants. Binding studies with FL^AgI/II and FL^SspB and subfragments were then carried out as described above and regenerated as described in Table 2.
as §2

[2] = target: T3, iSRCR123 (Deglycosylated) (Homo sapiens, UniProt Q9UGM3); assay: SPR binding of analytes to on-chip deglycosylated iSRCR123; settings: ligand iSRCR123 (Deglycosylated)
T3 construct: multiple SRCR domains have better adherence capability compared to that of a single SRCR domain; made in house; host or cells: Drosophila expression system
T3 sequence (Q9UGM3 102-463 limits assumed): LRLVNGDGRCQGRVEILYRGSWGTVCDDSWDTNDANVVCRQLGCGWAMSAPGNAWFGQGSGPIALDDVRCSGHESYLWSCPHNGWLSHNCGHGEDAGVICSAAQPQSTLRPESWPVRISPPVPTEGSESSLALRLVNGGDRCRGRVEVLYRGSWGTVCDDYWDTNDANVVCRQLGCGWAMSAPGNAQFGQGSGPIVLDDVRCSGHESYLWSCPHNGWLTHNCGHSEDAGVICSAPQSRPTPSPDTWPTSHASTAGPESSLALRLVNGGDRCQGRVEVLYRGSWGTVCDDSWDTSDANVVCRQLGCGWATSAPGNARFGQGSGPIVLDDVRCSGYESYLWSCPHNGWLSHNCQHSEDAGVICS
Description: as §1, §3, §2

iSRCR1 [3] = target: T4, iSRCR1 (Homo sapiens, UniProt Q9UGM3); assay: SPR binding of analytes to immobilized iSRCR1 (CM5 chip, 1:1 Langmuir); settings: ligand iSRCR1
T4 construct: strongly proves that a single SRCR domain contains the adherence sites for AgI/II and SspB; made in house; host or cells: Drosophila expression system
T4 sequence (Q9UGM3 102-202 limits assumed): as the sequence (Q9UGM3 102-202) above
Description: as §1, §2

iSRCR123 [4] = target: T1, iSRCR123; assay: Competition adherence SPR on immobilized iSRCR123; format: binding; settings: FL injected first
Description: (§4) To determine whether AgI/II domains bound to the same site on SRCR domains, competitive binding SPR experiments were conducted in triplicates as previously described where each fragment of AgI/II (FL, A3VP1, or C123) or SspB (FL, A3VP1 or C123) was initially passed over the chip surface immobilized with either iSRCR1, iSRCR123 or SAG for 60 seconds to saturate available binding sites. The response curve of AgI/II or SspB first fragment was recorded, where the maximal RU (RU1) was considered as the base line for the second injection, and thereafter the competing fragment was injected and its response was recorded as RU2. The adherence of the second fragment was then calculated (RU2−RU1) for all SPR competing assay as reported earlier.

SAG = target: T5, SAG (Homo sapiens, UniProt Q9UGM3); assay: SPR binding of analytes to immobilized SAG; settings: ligand SAG
T5 construct: from tissue; host or cells: saliva (purified SAG, gift)
T5 sequence (Q9UGM3 20-2413): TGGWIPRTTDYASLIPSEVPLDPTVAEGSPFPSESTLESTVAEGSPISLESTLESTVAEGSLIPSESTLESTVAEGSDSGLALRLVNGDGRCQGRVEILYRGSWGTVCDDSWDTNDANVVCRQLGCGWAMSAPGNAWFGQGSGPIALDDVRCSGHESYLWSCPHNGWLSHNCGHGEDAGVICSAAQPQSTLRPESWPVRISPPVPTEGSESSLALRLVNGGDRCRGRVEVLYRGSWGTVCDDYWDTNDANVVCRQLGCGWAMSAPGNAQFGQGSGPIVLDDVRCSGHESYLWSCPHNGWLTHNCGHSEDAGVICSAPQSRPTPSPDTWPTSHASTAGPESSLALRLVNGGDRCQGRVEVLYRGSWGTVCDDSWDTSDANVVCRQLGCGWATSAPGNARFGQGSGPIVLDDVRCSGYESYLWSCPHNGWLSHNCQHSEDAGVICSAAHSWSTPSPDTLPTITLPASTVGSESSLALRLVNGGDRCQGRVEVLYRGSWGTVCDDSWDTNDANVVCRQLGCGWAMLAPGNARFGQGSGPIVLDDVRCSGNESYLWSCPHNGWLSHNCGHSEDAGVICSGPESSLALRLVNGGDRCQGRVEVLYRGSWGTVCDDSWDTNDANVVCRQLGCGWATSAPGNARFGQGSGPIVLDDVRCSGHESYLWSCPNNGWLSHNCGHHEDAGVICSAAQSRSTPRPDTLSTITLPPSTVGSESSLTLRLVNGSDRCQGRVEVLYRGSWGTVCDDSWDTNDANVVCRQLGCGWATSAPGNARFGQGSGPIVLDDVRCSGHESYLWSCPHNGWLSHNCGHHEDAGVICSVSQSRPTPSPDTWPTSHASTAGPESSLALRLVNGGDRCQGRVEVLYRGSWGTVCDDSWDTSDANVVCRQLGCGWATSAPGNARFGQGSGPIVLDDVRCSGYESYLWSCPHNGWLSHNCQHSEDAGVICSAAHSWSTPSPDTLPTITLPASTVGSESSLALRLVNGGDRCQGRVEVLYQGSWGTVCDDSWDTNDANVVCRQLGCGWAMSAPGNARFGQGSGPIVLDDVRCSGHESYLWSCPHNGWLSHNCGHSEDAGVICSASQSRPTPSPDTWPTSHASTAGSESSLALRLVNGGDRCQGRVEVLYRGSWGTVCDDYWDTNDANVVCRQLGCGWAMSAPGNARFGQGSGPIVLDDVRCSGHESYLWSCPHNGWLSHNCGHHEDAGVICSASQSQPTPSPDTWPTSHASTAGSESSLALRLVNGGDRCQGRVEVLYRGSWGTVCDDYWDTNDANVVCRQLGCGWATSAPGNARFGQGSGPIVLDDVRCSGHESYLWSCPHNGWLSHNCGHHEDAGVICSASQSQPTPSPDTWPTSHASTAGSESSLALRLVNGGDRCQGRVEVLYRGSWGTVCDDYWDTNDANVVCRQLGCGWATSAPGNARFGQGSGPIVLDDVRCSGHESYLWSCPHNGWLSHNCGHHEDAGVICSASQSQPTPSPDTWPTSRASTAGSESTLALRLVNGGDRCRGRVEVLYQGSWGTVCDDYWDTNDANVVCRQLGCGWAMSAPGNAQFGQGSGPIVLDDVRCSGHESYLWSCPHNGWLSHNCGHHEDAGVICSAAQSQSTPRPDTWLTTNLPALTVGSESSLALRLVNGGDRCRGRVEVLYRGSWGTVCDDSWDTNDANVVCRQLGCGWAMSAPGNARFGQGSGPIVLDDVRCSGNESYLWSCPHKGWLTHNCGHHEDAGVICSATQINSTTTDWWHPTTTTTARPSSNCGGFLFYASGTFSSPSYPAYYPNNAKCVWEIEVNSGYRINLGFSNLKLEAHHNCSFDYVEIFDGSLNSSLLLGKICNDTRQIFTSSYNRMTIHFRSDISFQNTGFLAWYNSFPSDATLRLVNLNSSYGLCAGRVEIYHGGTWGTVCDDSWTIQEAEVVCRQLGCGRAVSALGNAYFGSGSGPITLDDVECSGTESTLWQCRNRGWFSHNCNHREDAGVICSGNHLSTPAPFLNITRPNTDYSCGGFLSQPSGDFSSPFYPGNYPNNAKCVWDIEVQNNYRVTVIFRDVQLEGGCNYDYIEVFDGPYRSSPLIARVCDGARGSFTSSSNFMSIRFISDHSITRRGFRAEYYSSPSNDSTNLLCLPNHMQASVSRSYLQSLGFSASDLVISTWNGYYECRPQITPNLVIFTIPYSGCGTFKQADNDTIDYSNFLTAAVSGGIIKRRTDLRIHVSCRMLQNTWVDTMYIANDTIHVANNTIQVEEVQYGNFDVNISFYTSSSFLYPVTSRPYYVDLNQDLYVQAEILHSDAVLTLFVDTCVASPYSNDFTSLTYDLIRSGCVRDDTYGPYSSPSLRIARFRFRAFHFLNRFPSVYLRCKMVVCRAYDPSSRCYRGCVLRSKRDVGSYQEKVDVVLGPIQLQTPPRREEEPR
Description: as §1, §2

iSRCR1 [5] = target: T4, iSRCR1; assay: Competition adherence SPR on immobilized iSRCR1; format: binding; settings: FL injected first
Description: as §4

T1 sequence (Q9UGM3 102-463 limits assumed): as the sequence (Q9UGM3 102-463 limits assumed) above

Molecule	KA (iSRCR123 [1]) [M⁻¹]	Kd (iSRCR123 [1]) [nM]	ka (iSRCR123 [1]) [M⁻¹ s⁻¹]	kd (iSRCR123 [1]) [s⁻¹]	KA (iSRCR1 (Deglycosylated)) [M⁻¹]	Kd (iSRCR1 (Deglycosylated)) [nM]	ka (iSRCR1 (Deglycosylated)) [M⁻¹ s⁻¹]	kd (iSRCR1 (Deglycosylated)) [s⁻¹]	KA [2] [M⁻¹]	Kd [2] [nM]	ka [2] [M⁻¹ s⁻¹]	kd [2] [s⁻¹]	KA (iSRCR1 [3]) [M⁻¹]	Kd (iSRCR1 [3]) [nM]	ka (iSRCR1 [3]) [M⁻¹ s⁻¹]	kd (iSRCR1 [3]) [s⁻¹]	other results
C123^AgI/II: S. mutans AgI/II C-terminal C123 fragment (57.3 kDa) (protein) VNKEIRNNNDINIDRTLVAKQSVVKFQLKTADLPAGRDETTSFVLVDPLPSGYQFNPEATKAASPGFDVTYDNATNTVTFKATAATLATFNADLTKSVATIYPTVVGQVLNDGATYKNNFTLTVNDAYGIKSNVVRVTTPGKPNDPDNPNNNYIKPTKVNKNENGVVIDGKTVLAGSTNYYELTWDLDQYKNDRSSADTIQKGFYYVDDYPEEALELRQDLVKITDANGNEVTGVSVDNYTNLEAAPQEIRDVLSKAGIRPKGAFQIFRADNPREFYDTYVKTGIDLKIVSPMVVKKQMGQTGGSYENQAYQIDFGNGYASNIIINNVPKINPKKDVTLTLDPADTNNVDGQTIPLNTVFNYRLIGGIIPADHSEELFEYNFYDDYDQTGDHYTGQYKVFAKVDITFKDGSIIKSGAELTQYTTAEVDTAKGAITIKFKEAFLRSVSIDSAFQAESYIQMKRIAVGTFENTYINTVNGVTYSSNTVK	1.15e+07	87	8290	0.000721	48100	20800	1180	0.0246	458000	2180	3010	0.00658	6.46e+06	151	15400	0.00232	–
A3VP1^AgI/II: S. mutans AgI/II apical A3VP1 fragment (54.4 kDa) (protein) AANEADYQAKLTAYQTELARVQKANADAKAAYEAAVAANNAANAALTAENTAIKKRNADAKADYEAKLAKYQADLAKYQKDLADYPVKLKAYEDEQASIKAALAELEKHKNEDGNLTEPSAQNLVYDLEPNANLSLTTDGKFLKASAVDDAFSKSTSKAKYDQKILQLDDLDITNLEQSNDVASSMELYGNFGDKAGWSTTVSNNSQVKWGSVLLERGQSATATYTNLQNSYYNGKKISKIVYKYTVDPKSKFQGQKVWLGIFTDPTLGVFASAYTGQVEKNTSIFIKNEFTFYDEDGKPINFDNALLSVASLNRENNSIEMAKDYTGKFVKISGSSIGEKNGMIYATDTLNFRQGQGGARWTMYTRASEPGSGWDSSDAPNSWYGAGAIRMSGPNNSVTLGAISSTLVVPADPTMAIETGKKPNIWYSLNGKIRAVNVPKVTKEKPTPPVKPTAPTKPTYETEKPLKPAPVAPNYEKEPTPPTRTPDQ	7.98e+06	125	19900	0.00249	1.92e+06	520	5270	0.00274	1.22e+06	818	4070	0.00333	8.57e+06	117	28000	0.00327	–
FL^SspB: S. gordonii SspB full length construct (151.9 kDa) (protein) DEVTETTSTSTVEVATTGNPATNLPEAQGEMSQVAKESQAKAGSKESALPVEVSSADLDKAVADAKSAGVKVVQDETKDKGTATTATDNAQKQDEIKSDYAKQAEEIKTTTEAYKKEVAAHQAETDKINAENKAADDKYQKDLKSHQEEVEKINTANATAKAEYEAKLAQYQKDLATVKKANEDSQQDYQNKLSAYQTELARVQKANAEAKEAYEKAVKENTAKNEALKVENEAIKQRNETAKATYEAAMKQYEADLAAIKKANEDNDADYQAKLAAYQTELARVQKANAEAKEAYDKAVKENTAKNTAIQAENEAIKQRNETAKATYDAAVKKYEADLAAVKQANATNEADYQAKLAAYQTELARVQKANADAKATYEKAVEDNKAKNAAIKAENEEIKQRNAVAKTDYEAKLAKYEADLAKYKKEFAAYTAALAEAESKKKQDGYLSEPRSQSLNFKSEPNAIRTIDSSVHQYGQQELDALVKSWGISPTNPDRKKSRAYSYFNAINSNNTYAKLVLEKDKPVDVTYTGLKNSSFNGKKISKVVYTYTLKETGFNDGTKMTMFASSDPTVTAWYNDYFTSTNINVKVKFYDEEGQLMNLTGGLVNFSSLNRGNGSGAIDKDAIESVRNFNGRYIPISGSSIKIHENNSAYADSSNAEKSLGARWNTSEWDTTSSPNNWYGAIVGEITQSEISFNMASSKSGNIWFAFNSNINAIGVPTKPVAPTAPTQPMYETEKPLEPAPVAPSYENEPTPPVKTPDQPEPSKPEEPTYETEKPLEPAPVAPSYENEPTPPVKTPDQPEPSKPEEPNYETEKPLEPAPVAPSYENEPTPPVKIPDQPEPSKPEEPTYDPLPTPPLAPTPKQLPTPPVVPTVHFHYSSLLAQPQINKEIKNEDGVDIDRTLVAKQSIVKFELKTEALTAGRPKTTSFVLVDPLPTGYKFDLDATKAASTGFDTTYDEASHTVTFKATDETLATYNADLTKPVETLHPTVVGRVLNDGATYTNNFTLTVNDAYGIKSNVVRVTTPGKPNDPDNPNNNYIKPTKVNKNKEGLNIDGKEVLAGSTNYYELTWDLDQYKGDKSSKEAIQNGFYYVDDYPEEALDVRPDLVKVADEKGNQVSGVSVQQYDSLEAAPKKVQDLLKKANITVKGAFQLFSADNPEEFYKQYVATGTSLVITDPMTVKSEFGKTGGKYENKAYQIDFGNGYATEVVVNNVPKITPKKDVTVSLDPTSENLDGQTVQLYQTFNYRLIGGLIPQNHSEELEDYSFVDDYDQAGDQYTGNYKTFSSLNLTMKDGSVIKAGTDLTSQTTAETDATNGIVTVRFKEDFLQKISLDSPFQAETYLQMRRIAIGTFENTYVNTVNKVAYASNTVRTTTPIPRTPDKPTPIPTPKPKDP	2.38e+07	42.1	18200	0.000759	7.97e+06	125	8300	0.00104	5.24e+06	191	6920	0.00132	3.91e+06	256	9250	0.00237	quantity of protein that adhered to iSRCR123, higher than iSRCR1 (iSRCR123 [1]; analyte at 2 μM, iSRCR123 versus iSRCR1): 43%; inhibition of binding of the A3VP1 fragment of the same protein (iSRCR123 [4]): 68%; inhibition of binding of the C123 fragment of the same protein (iSRCR123 [4]): 76%; KA (SAG): 1.63e+08 M⁻¹; ka (SAG): 320000 M⁻¹ s⁻¹; kd (SAG): 0.00197 s⁻¹; inhibition of binding of the A3VP1 fragment of the same protein (iSRCR1 [5]): 54%; inhibition of binding of the C123 fragment of the same protein (iSRCR1 [5]): 23%
